Assay results published in article PMC8324488 (Cell Reports Medicine, 2021).

Molecular target: EBV glycoprotein gp350 (Epstein-Barr virus (strain B95-8) …, UniProt P03200-1)
Experiment: flow cytometry on cells

Chain of EBV glycoprotein gp350 (P03200 whole entry): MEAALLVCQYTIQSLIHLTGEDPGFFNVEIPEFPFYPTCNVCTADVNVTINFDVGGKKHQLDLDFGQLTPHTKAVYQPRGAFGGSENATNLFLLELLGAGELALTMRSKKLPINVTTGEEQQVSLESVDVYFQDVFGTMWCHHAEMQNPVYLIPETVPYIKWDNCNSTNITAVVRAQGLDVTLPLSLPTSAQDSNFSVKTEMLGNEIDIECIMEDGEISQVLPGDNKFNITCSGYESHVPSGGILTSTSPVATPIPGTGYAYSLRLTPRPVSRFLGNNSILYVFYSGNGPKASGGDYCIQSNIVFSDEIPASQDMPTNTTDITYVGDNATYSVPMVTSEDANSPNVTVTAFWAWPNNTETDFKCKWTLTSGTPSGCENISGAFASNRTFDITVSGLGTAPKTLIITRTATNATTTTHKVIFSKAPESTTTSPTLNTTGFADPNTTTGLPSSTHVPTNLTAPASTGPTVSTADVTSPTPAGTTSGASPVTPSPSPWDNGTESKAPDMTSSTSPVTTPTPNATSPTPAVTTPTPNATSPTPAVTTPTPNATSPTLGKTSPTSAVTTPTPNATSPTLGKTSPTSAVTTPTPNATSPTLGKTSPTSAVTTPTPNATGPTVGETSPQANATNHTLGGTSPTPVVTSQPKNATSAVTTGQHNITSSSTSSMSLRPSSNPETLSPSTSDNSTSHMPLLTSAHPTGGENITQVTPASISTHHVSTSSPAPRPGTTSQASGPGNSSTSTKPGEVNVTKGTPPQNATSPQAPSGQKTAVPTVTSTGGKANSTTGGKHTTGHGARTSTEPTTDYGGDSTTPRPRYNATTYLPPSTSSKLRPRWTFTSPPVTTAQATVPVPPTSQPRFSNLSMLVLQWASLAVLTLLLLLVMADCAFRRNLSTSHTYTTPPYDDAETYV

binding result: binds
B1: 72A1, original hybridoma antibody (antibody, V domains shown)
VH: EVQLQQSGPELVKPGTSMKISCKASGSSFTDYTMNWMKQSHGKNLEWIGLINPYNGGTRYNQKFKGKATLTLDKSSSTAYMEVLSLTSEDSAVYYCAGGLRRVNWFAYWGQGTLVSVSA
VL: QAVLTQESALTTSPGETVTLTCRSSTGAVTTSNYANWVQEKPDHLFTGLIGGTNNRVPGVPARFSGSLIGDKAALTITGAQTEDEAIYFCVLWHSNHWVFGGGTKLTVL
